{"source": "the nanobody polyreactivity screen of Harvey et al. (2022)", "data": [{"test": "yeast display, Sf9 membrane polyspecificity reagent, FACS + sequencing; frameworks hold sequencing errors", "method_in_brief": "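A nanobody's polyreactivity label depends on the gate it was sorted from. Yeast display cells were stained with 10% biotinylated, detergent-solubilized Sf9 membrane reagent for 1 hour at 4 °C, enriched on streptavidin microbeads and sorted by FACS. The low and high (top ~1%) gates were set on anti-HA fluorescence for expression and streptavidin fluorescence for reagent binding.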", "values": [{"sequence": "QVHLVESGGGLVQAGGRLRLSCDASGRTFKGYAMGWYRQAPGQERELGAAISFTGGSTYYADSVKGRFTISRDNAKNPVDLQMNSLKPEDTAVYYCNAVNYRGYGYWGQGTQVTVSS", "polyreactivity (PSR sort gate)": "high polyreactivity"}, {"sequence": "QVHLVESGGGLVQAGGSLRISCAASGFIFEPYAMGWYRQAPGKERELVAAISSTGGSTYADSVKGRFTISRDNAKNTVYIQMNSLKPEDTEGYYCAAKVRISRYTYGYWGQGNQVTVSS", "polyreactivity (PSR sort gate)": "high polyreactivity"}, {"sequence": "QVHLVESGGGLVQAGGSLRISCAASGSTFYYYTMGWYRQAPGKERELVAISWDGDSTYYADSVKGRFTISRDNAKNTVYLQMNSLKPEDTAVYYFNAEYTWSGTKIYTYKYDFWGPGTQVTVSS", "polyreactivity (PSR sort gate)": "low polyreactivity"}, {"sequence": "QVHLVESGGGLVQAGGSLRITCAASGRIFWSYAMGWYRQAPGKEMELVAAITWSGGSTYYADSVKGRFTISRDNAKNTVYLQMIRLKPEDTAVYYCNAATGQPVGLDYWGQGTQVTVSS", "polyreactivity (PSR sort gate)": "low polyreactivity"}, {"sequence": "QVHLVESGGGLVQAGGSLRLICAASGFTFAVYAMGWYRQAPGKERELVAAISRSSGRTYYADSVKGRFTISRDNAKNTVYLQMNSLKPEDTAVYYCNARRGSPAPYDYWGQGTQVTVSS", "polyreactivity (PSR sort gate)": "high polyreactivity"}, {"sequence": "QVHLVESGGGLVQAGGSLRLICAASGSTFWSYAMGWYRQAPGKERELVAAITSGGRTYYADSVKGRFTISRDNAKNTVYLQMNRLKPEYTAVYNCNAVVRHTYRRFDYWGQGTQVTVSS", "polyreactivity (PSR sort gate)": "high polyreactivity"}, {"sequence": "QVHLVESGGGLVQAGGSLRLSCAASASTFLYYAMGWNRQPPGKERELVAVISWSGVSTYYADSVKGRFTSSRDNAKYTVYLQMNSLKPEDTAVYYCNTGNHYIRTYGYWGQGTQVTVSS", "polyreactivity (PSR sort gate)": "low polyreactivity"}, {"sequence": "QVHLVESGGGLVQAGGSLRLSCAASASTFQSNAMGWYRQAPGKERELVATITQSGATTYYADSVKGRFTISRDYAKNTVYLQMNSLKPEDTAVYYCNVDTFQKRWFWLDLDGGYWGQGTQVTVSS", "polyreactivity (PSR sort gate)": "low polyreactivity"}, {"sequence": "QVHLVESGGGLVQAGGSLRLSCAASGFIFHLNSMGWYRQAPGTERELVAAFSWNGGSTFYADSVKGRFTISRDNAKNTVYLQMNSLKPEDTAVYYCNADFRPAYTYDYWGQGTQVTVSS", "polyreactivity (PSR sort gate)": "low polyreactivity"}, {"sequence": "QVHLVESGGGLVQAGGSLRLSCAASGFIFHYNAMGWYRQAPGKERELVAAITSGDSTDYADSVKGRFTISRDNAKNTVYLQMNSLIPEDTAVYYCAAYHREGRRDDYWGQGTQVTVSS", "polyreactivity (PSR sort gate)": "low polyreactivity"}, {"sequence": "QVHLVESGGGLVQAGGSLRLSCAASGFIFSCYAMGWYRQAPGKERELVATITSGGSTVYADSVKGRFTISRDNAKNTVSLEMNSLKPEDTAVYYSNVDSTLYYLSRDYDYWGQATQVTVSS", "polyreactivity (PSR sort gate)": "high polyreactivity"}, {"sequence": "QVHLVESGGGLVQAGGSLRLSCAASGFIFVRNARGWYRQAPGKERELVARISRSGGSTYYADSVKGRFTISRDNAKNTVYLQMNSLKQEDTAVYYCAAVLQAYPRLDYWGQGTQVTVSS", "polyreactivity (PSR sort gate)": "high polyreactivity"}, {"sequence": "QVHLVESGGGLVQAGGSLRLSCAASGFIFYSNAMGWYRQAPGKERELVAAISSGGGSTRYADSVKGRFTISRDNAKNTVYLQMNSLKPQDTAVYYCAAREGYTKFRSTRYYYWGQGTQVTVSS", "polyreactivity (PSR sort gate)": "high polyreactivity"}, {"sequence": "QVHLVESGGGLVQAGGSLRLSCAASGFIRNYAMGWYRQAPGKERELVAAITSSGGRTYYADSVKGRFTISRDNAKNRVYLQMNSLKPEDTAVYYCAAPSRITTGPHREYDYWGQGTLVTVSS", "polyreactivity (PSR sort gate)": "high polyreactivity"}, {"sequence": "QVHLVESGGGLVQAGGSLRLSCAASGFTFGIYAMGWYRQAPGKERELVAAIRKGGGSTYYADSVKGRFTISRDNAKNTVYLQMNSLKPEDTAVYYCAADSYRDWHDYWGQGTQVTVSS", "polyreactivity (PSR sort gate)": "low polyreactivity"}, {"sequence": "QVHLVESGGGLVQAGGSLRLSCAASGFTFPWYAMGWYRQAPGKERELVAAINTGGSTYYADSVKGRFSISRDNAKNTVYLQMNSLKPDDTEVYYCATLGRYRYLNTYYWGSHDYWGQGTQVTVSS", "polyreactivity (PSR sort gate)": "high polyreactivity"}, {"sequence": "QVHLVESGGGLVQAGGSLRLSCAASGFTFRTYAMGWYRQAPGKERELVAAITRNGGTYYADSVKGRFTISRDNAKNTVNLQMNSLKPEDTAVYYCATDPAYWGDQPPEDDYWGQGTQVTVSS", "polyreactivity (PSR sort gate)": "low polyreactivity"}, {"sequence": "QVHLVESGGGLVQAGGSLRLSCAASGFTFSFYAMGWYRQAPGKERELVAAIDRSGGSTYYADSVKGRFTISRDNAKNTVYLQMNSLKPEDTAFYYCAATVFYGYYYWGQGTQVTVSS", "polyreactivity (PSR sort gate)": "high polyreactivity"}, {"sequence": "QVHLVESGGGLVQAGGSLRLSCAASGFTFSSNAMGWYRQAPGKERELVAAIRSGGTTKYADSVKGRFTISRDNAKNTLYLQMNSLKPEDTAVYYCAARIRDLAGYYYWGQGTQVTVSS", "polyreactivity (PSR sort gate)": "high polyreactivity"}, {"sequence": "QVHLVESGGGLVQAGGSLRLSCAASGGIFSYYALGWYRQAPGKERELVAAISSGGTTYYADSVKGRFTISRDNAKNTVYLQMNSLKPEDTAVYYCALLVGHNYWGQGTQVTVSS", "polyreactivity (PSR sort gate)": "low polyreactivity"}, {"sequence": "QVHLVESGGGLVQAGGSLRLSCAASGIIFGGNVMGWYRQAGGKERELVAAITWSGGTTYYADSVKGRFTISRDNAKNTVYLQMNSLKPEDTAVYYCAADRFYLDYVAGTYDYWGQGTQVTVSS", "polyreactivity (PSR sort gate)": "low polyreactivity"}, {"sequence": "QVHLVESGGGLVQAGGSLRLSCAASGIIFSTYAMGWYRQAPGKERELVAAITSTGSTNYADSVKGRFTISRDNAKNTVYLQINRLKQEDTAVYYCAARYAGPSPTDTGHDYWGQGTQVTVSS", "polyreactivity (PSR sort gate)": "low polyreactivity"}, {"sequence": "QVHLVESGGGLVQAGGSLRLSCAASGIIFYRYAMGWYRQAPGKESELVAAITRRTASTYYADSVKGRFTLSRDNAKNTVYLPLNSLKPEDSAVYYCSAYSPYSHIVDNFDYWGQGTQVTVSS", "polyreactivity (PSR sort gate)": "low polyreactivity"}, {"sequence": "QVHLVESGGGLVQAGGSLRLSCAASGITLGYYVMGWYRQAPGKERELVAAISSSGGRTYYADSVKGRFTISRDNAKNTVYLQMNSLKPEDTAVYYCSADLGRGIYDYWGQGTQVTVSS", "polyreactivity (PSR sort gate)": "low polyreactivity"}, {"sequence": "QVHLVESGGGLVQAGGSLRLSCAASGLIFGGYAMGWDRQAPGKERELVAAISSNSGSTYYADSVKGRFTISRDNAKNTVYLQMNSLKPEDTAVYYCIRYFYQGFDYWGQGTQVTVSS", "polyreactivity (PSR sort gate)": "high polyreactivity"}, {"sequence": "QVHLVESGGGLVQAGGSLRLSCAASGLIFGRNAMGWYRQAPGKERELVAAISTRGGSTYYADSVKGRFTISRDNAKNTVYLQMNSLKPEDTAVYYCAARGSYGYDYWGQGPQVTVSS", "polyreactivity (PSR sort gate)": "high polyreactivity"}, {"sequence": "QVHLVESGGGLVQAGGSLRLSCAASGLIFSFYPMGWYRQAPGKERELVAGINWRGGSTYYADSVKGRFTISRDNAKNTVYLQMNSLKPEETAVYYCAAPSYYYGYWGQGTQVTVLS", "polyreactivity (PSR sort gate)": "high polyreactivity"}, {"sequence": "QVHLVESGGGLVQAGGSLRLSCAASGLTFNRYTMGWYRQAPGKESELVAAITSSGSTYYADSVKGRFTISRDNAKNTVNLQMNSLKPEDTAVDYCNTVYYDWFHYDYWGQGTQVTVSS", "polyreactivity (PSR sort gate)": "high polyreactivity"}, {"sequence": "QVHLVESGGGLVQAGGSLRLSCAASGNSLRVYAMGWYRQAPGKERELVAAISYSSVNTYYADSVKGRFTISRDNAKNTVYLQMNSLKPEETAVYYCAADYFYYRRTQYDLRGYPYYYWGQGTQVTVSS", "polyreactivity (PSR sort gate)": "low polyreactivity"}, {"sequence": "QVHLVESGGGLVQAGGSLRLSCAASGRIFATNAMGWYRPAPGKERELVATITRSAGRTYYADSVKGRFTISRDNAKNTVYLQMNSLKPEDTAVYYCAASYWDTEPGYREYDYWGQGTQVTVSS", "polyreactivity (PSR sort gate)": "low polyreactivity"}, {"sequence": "QVHLVESGGGLVQAGGSLRLSCAASGRIFGRNAMGWYRQAPGKERELVAAISKRGGSTSYADSVKGRFTISRDNAKNTVYLQMNSLKPEDTAVYYCATSAPLVTSSGYGYWGHGTQVTVSS", "polyreactivity (PSR sort gate)": "high polyreactivity"}, {"sequence": "QVHLVESGGGLVQAGGSLRLSCAASGRIFGVYAMGWYRQAPGKERELVAVISWSGTSTYYADSVKGRFTISRDYAKNTVYLQMNSLKPEDTAVYYCAADYIGITDYYAIVVYLGYDSWGQGTQVTVSS", "polyreactivity (PSR sort gate)": "high polyreactivity"}, {"sequence": "QVHLVESGGGLVQAGGSLRLSCAASGRIFNPNAMGWYRQAPGKERELVAAITSGDSTNYADSVKGRFTISRDNAKNTVYLQMNSLKPEDTAVYYCAADWTYPYNSWGQGTQVTVSS", "polyreactivity (PSR sort gate)": "low polyreactivity"}, {"sequence": "QVHLVESGGGLVQAGGSLRLSCAASGRIFNWYVMGWYRQAPGKERELVAAITSGGITKYADSVKGRFTISRDNAKNTVYLQMNSLKPEDTAVYYCAAYYRRYDYDYWGQGSQVTVSS", "polyreactivity (PSR sort gate)": "high polyreactivity"}, {"sequence": "QVHLVESGGGLVQAGGSLRLSCAASGRIFPAYVMGWYRQAPGKERELVAGITSASSTYYADSVKGRFTISRDNAKNTVYLQMNSLKPEDTAVYYCAAVGYSVRQRYDYWGQGTQVTVSS", "polyreactivity (PSR sort gate)": "high polyreactivity"}, {"sequence": "QVHLVESGGGLVQAGGSLRLSCAASGRIFRTYAMGWYRPAPGKERELVAAISGSGGRTYYADSVKGRFTISRDNAKNTVYLQMNSLIPEDTAVSYCAKYVSIVRYGSTTNYDYWGQGTQVTVSS", "polyreactivity (PSR sort gate)": "high polyreactivity"}, {"sequence": "QVHLVESGGGLVQAGGSLRLSCAASGRIFRYNAMGWYRQAPVKESELVAAISSIGGRTYYADSVKGRFTISRDNAKNTVYLQMNSLQPEDTAVYNCAALSYYVDGEYDYWGQGTQVTVSS", "polyreactivity (PSR sort gate)": "high polyreactivity"}, {"sequence": "QVHLVESGGGLVQAGGSLRLSCAASGRIFSNNAMGWYRQAPGKERELVATITGSGGRTYYADSVKGRFTISRDNAKNTVYLQMNSLKPEDTAVYYCAAVKRPDYYYWGQGTQVTVSS", "polyreactivity (PSR sort gate)": "high polyreactivity"}, {"sequence": "QVHLVESGGGLVQAGGSLRLSCAASGRIFSWYTMGWYRQAPGKERELVAVITSGGTTKYADSVKGRFTISRDNAKNTVYLQMNSLKPEDTAVYYCNVAGRDYAVRWGSFDYWGQGTQVTVSS", "polyreactivity (PSR sort gate)": "low polyreactivity"}, {"sequence": "QVHLVESGGGLVQAGGSLRLSCAASGRIFVPYVMGWNRQAPGTERELVASISDSDTSTYYADSVKGRFTISRDNAKNTVYVEMISLKPEDTAVYDCNVDYWGQGTHVTVSS", "polyreactivity (PSR sort gate)": "low polyreactivity"}, {"sequence": "QVHLVESGGGLVQAGGSLRLSCAASGRIFYGYAMGWYRQAPWKEREFVAAITWRGGTFYADSVKGRFTISRDNAKNTVYLQMNSLKPEDTAVYYCAARVSSYGRYDYWGQGTQVTVSS", "polyreactivity (PSR sort gate)": "high polyreactivity"}, {"sequence": "QVHLVESGGGLVQAGGSLRLSCAASGRIFYYNAIGWYRQAPGKERELVANITRARGTYYADSVKGPFTISRDNAKNTVYLQMNSLKPEDTAVYYCAKRHPIVDDYKGDYWGQGTQVTVSS", "polyreactivity (PSR sort gate)": "low polyreactivity"}, {"sequence": "QVHLVESGGGLVQAGGSLRLSCAASGRIFYYNTMGWYRQAPGKERELVAAITTNGGSTYYADSVKGRFTISRDNAKNTVYLQMNSLKPEDTAVYYCNRDRYPYYYAYNYWGQGTQVTVSS", "polyreactivity (PSR sort gate)": "low polyreactivity"}]}]}
